Reference: patent US20210253718A1, “FRIZZLED5 PROTEIN-BINDING AGENTS” (Modmab Therapeutics Corporation, priority 2016, published 2021)

Tests used:
[1] = tested on: ASPC-1 cells; assay: Effect of anti-FZD5 Fabs on proliferation of pancreatic cancer cell lines (percent growth inhibition); assay type: cell-based, human; conditions: Fab 2 μg/ml
[2] = tested on: RWP1 cells; assay: as above; assay type: cell-based, human; conditions: Fab 2 μg/ml
[3] = tested on: PATU8988S cells; assay: as above; assay type: cell-based, human; conditions: Fab 10 μg/ml
Procedure: (§1) The effect of presently disclosed anti-FZD5 Fabs on proliferation of RNF43 loss-of-function mutant pancreatic cancer cell lines HPAFII, PATU8988S and ASPC-1; and on pancreatic cancer cell line RWP1, was tested at […] and 10 μg/ml.

[4] = tested on: ASPC-1 cells; assay: as above; assay type: cell-based, human; conditions: Fab 10 μg/ml
Procedure: as §1

[5] = tested on: HPAFII cells; assay: as above; assay type: cell-based, human; conditions: for percent growth inhibition, HPAFII 2 μg/ml: Fab 2 μg/ml; for percent growth inhibition, HPAFII 10 μg/ml: Fab 10 μg/ml
Procedure: as §1

[6] = tested on: RWP1 cells; assay: as above; assay type: cell-based, human; conditions: Fab 10 μg/ml
Procedure: as §1

[7] = target: T1, FZD5 CRD (Homo sapiens, UniProt Q13467); assay: Immunofluorescence of anti-FZD5 Fab binding to CHO cells overexpressing Frizzled CRD; design: key: −: no binding; +: very weak binder; ++: weak binder; +++: good binder; ++++: very good binder
T1 construct: K29-T156; GPI anchor signal (C); expressed in transfected cells; host or cells: CHO cells, lentiviral pLenti-puro
T1 sequence (Q13467 29-156): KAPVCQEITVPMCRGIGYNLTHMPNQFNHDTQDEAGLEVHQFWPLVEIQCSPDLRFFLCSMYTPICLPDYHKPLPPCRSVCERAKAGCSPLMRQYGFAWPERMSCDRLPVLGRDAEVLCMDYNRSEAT
In short: (§2)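 First, ten CHO cell lines were made, each lentivirally expressing a different human Frizzled CRD tagged with myc and tethered by GPI. Next, anti-FZD5 Fabs were added to each line. Finally, binding was assessed by immunofluorescence and flow cytometry.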

[8] = target: T2, FZD1 CRD (Homo sapiens, UniProt Q9UP38); assay: as above; design: key: −: no binding; +: very weak binder; ++: weak binder; +++: good binder; ++++: very good binder
T2 construct: D112-P238; GPI anchor signal (C); expressed in transfected cells; host or cells: CHO cells, lentiviral pLenti-puro
In short: as §2

[9] = target: T3, FZD6 CRD (Homo sapiens, UniProt O60353); assay: as above; design: key: −: no binding; +: very weak binder; ++: weak binder; +++: good binder; ++++: very good binder
T3 construct: S20-P146; GPI anchor signal (C); expressed in transfected cells; host or cells: CHO cells, lentiviral pLenti-puro
T3 sequence (O60353 20-146): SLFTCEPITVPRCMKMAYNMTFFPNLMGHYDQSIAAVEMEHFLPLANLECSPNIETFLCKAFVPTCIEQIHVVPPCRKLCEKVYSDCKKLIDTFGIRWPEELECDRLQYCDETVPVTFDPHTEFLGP
In short: as §2

[10] = target: T4, FZD3 CRD (Homo sapiens, UniProt Q9NPG1); assay: as above; design: key: −: no binding; +: very weak binder; ++: weak binder; +++: good binder; ++++: very good binder
T4 construct: CRD of FZD1, FZD2, FZD3, FZD4, FZD5, FZD6, FZD7, FZD8, FZD9 or FZD10; GPI anchor signal (C); expressed in transfected cells; host or cells: CHO cells, lentiviral pLenti-puro
T4 sequence (Q9NPG1 23-136 limits assumed): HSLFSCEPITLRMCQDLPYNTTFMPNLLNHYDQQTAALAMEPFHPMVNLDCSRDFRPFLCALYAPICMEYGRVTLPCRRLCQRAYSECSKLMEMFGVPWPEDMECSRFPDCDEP
In short: as §2

[11] = target: T5, FZD4 CRD (Homo sapiens, UniProt Q9ULV1); assay: as above; design: key: −: no binding; +: very weak binder; ++: weak binder; +++: good binder; ++++: very good binder
T5 construct: E42-V167; GPI anchor signal (C); expressed in transfected cells; host or cells: CHO cells, lentiviral pLenti-puro
T5 sequence (Q9ULV1 42-167): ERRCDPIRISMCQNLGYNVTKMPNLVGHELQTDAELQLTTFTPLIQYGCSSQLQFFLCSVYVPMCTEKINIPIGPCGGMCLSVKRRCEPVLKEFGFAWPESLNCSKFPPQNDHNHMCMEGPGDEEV
In short: as §2

B1: Fab-2914: anti-FZD5 Fab with antibody variable region Fv-2914; CDR SEQ ID NOs: 35, 36, 53, 92, 129, 162 (antibody, V domains shown)
VH: EVQLVESGGGLVQPGGSLRLSCAASGFNIYYSYMHWVRQAPGKGLEWVASIYPSSSSTSYADSVKGRFTISADTSKNTAYLQMNSLRAEDTAVYYCARGAMDYWGQGTLVTVSS
VL: DIQMTQSPSSLSASVGDRVTITCRASQSVSSAVAWYQQKPGKAPKLLIYSASSLYSGVPSRFSGSRSGTDFTLTISSLQPEDFATYYCQQWYYGSLITFGQGTKVEIK
- percent growth inhibition, ASPC-1 2 μg/ml [1]: 16.76%
- percent growth inhibition, RWP1 2 μg/ml [2]: 68.03%
- percent growth inhibition, PATU8988s 10 μg/ml [3]: −26.59%
- percent growth inhibition, ASPC-1 10 μg/ml [4]: 38.30%
- percent growth inhibition, HPAFII 2 μg/ml [5]: −4.97%
- percent growth inhibition, HPAFII 10 μg/ml [5]: 6.47%
- percent growth inhibition, RWP1 10 μg/ml [6]: 78.98%
- Immunofluorescence binding, Frizzled CRD overexpressed on CHO cells: FZD5 [7]: ++++
- Immunofluorescence binding, Frizzled CRD overexpressed on CHO cells: FZD1 [8]: ++
- Immunofluorescence binding, Frizzled CRD overexpressed on CHO cells: FZD6 [9]: −
- Immunofluorescence binding, Frizzled CRD overexpressed on CHO cells: FZD3 [10]: −
- Immunofluorescence binding, Frizzled CRD overexpressed on CHO cells: FZD4 [11]: −

B2: Fab-2919: anti-FZD5 Fab with antibody variable region Fv-2919; CDR SEQ ID NOs: 35, 36, 58, 97, 134, 155 (antibody, V domains shown)
VH: EVQLVESGGGLVQPGGSLRLSCAASGFNISYSYIHWVRQAPGKGLEWVASIYSSSGSTSYADSVKGRFTISADTSKNTAYLQMNSLRAEDTAVYYCARGAIDYWGQGTLVTVSS
VL: DIQMTQSPSSLSASVGDRVTITCRASQSVSSAVAWYQQKPGKAPKLLIYSASSLYSGVPSRFSGSRSGTDFTLTISSLQPEDFATYYCQQWYSSGHVLITFGQGTKVEIK
- percent growth inhibition, ASPC-1 2 μg/ml [1]: 30.04%
- percent growth inhibition, RWP1 2 μg/ml [2]: 7.36%
- percent growth inhibition, PATU8988s 10 μg/ml [3]: −11.49%
- percent growth inhibition, ASPC-1 10 μg/ml [4]: 35.99%
- percent growth inhibition, HPAFII 2 μg/ml [5]: 16.25%
- percent growth inhibition, HPAFII 10 μg/ml [5]: 36.80%
- percent growth inhibition, RWP1 10 μg/ml [6]: 22.54%
- Immunofluorescence binding, Frizzled CRD overexpressed on CHO cells: FZD5 [7]: ++++
- Immunofluorescence binding, Frizzled CRD overexpressed on CHO cells: FZD1 [8]: −
- Immunofluorescence binding, Frizzled CRD overexpressed on CHO cells: FZD6 [9]: −
- Immunofluorescence binding, Frizzled CRD overexpressed on CHO cells: FZD3 [10]: −
- Immunofluorescence binding, Frizzled CRD overexpressed on CHO cells: FZD4 [11]: −

B3: Fab-2915: anti-FZD5 Fab with antibody variable region Fv-2915; CDR SEQ ID NOs: 35, 36, 54, 93, 130, 166 (antibody, V domains shown)
VH: EVQLVESGGGLVQPGGSLRLSCAASGFNIYYYSMHWVRQAPGKGLEWVASIYSSYGYTSYADSVKGRFTISADTSKNTAYLQMNSLRAEDTAVYYCARGYHYYPYYSGLDYWGQGTLVTVSS
VL: DIQMTQSPSSLSASVGDRVTITCRASQSVSSAVAWYQQKPGKAPKLLIYSASSLYSGVPSRFSGSRSGTDFTLTISSLQPEDFATYYCQQAYYHSLITFGQGTKVEIK
- percent growth inhibition, ASPC-1 2 μg/ml [1]: 5.51%
- percent growth inhibition, RWP1 2 μg/ml [2]: 48.66%
- percent growth inhibition, PATU8988s 10 μg/ml [3]: −19.02%
- percent growth inhibition, ASPC-1 10 μg/ml [4]: 4.18%
- percent growth inhibition, HPAFII 2 μg/ml [5]: −16.37%
- percent growth inhibition, HPAFII 10 μg/ml [5]: −31.87%
- percent growth inhibition, RWP1 10 μg/ml [6]: 45.04%
- Immunofluorescence binding, Frizzled CRD overexpressed on CHO cells: FZD5 [7]: +++
- Immunofluorescence binding, Frizzled CRD overexpressed on CHO cells: FZD1 [8]: ++
- Immunofluorescence binding, Frizzled CRD overexpressed on CHO cells: FZD6 [9]: −
- Immunofluorescence binding, Frizzled CRD overexpressed on CHO cells: FZD3 [10]: −
- Immunofluorescence binding, Frizzled CRD overexpressed on CHO cells: FZD4 [11]: −
